Patent publication US20240092888A1 (AULOS BIOSCIENCE, published 2024)
Substitutions are numbered along the chain they refer to. Each block holds one binder with its values, some of them ahead of it.

Columns and labels:
[1] = molecular target: T1, human IL-2 (human, UniProt P60568 21-153); experiment: yeast surface display flow cytometry, 0.1 nM hIL-2, MFI normalized to expression
T1 construct: SPR used Reprokine human IL-2; the result sentences say only hIL-2 or labeled human IL-2, so the same molecule is used here; also called hIL-2; recombinant human IL-2

[2] = molecular target: T1, human IL-2; experiment: yeast surface display, selection against human IL-2
[3] = molecular target: T2, BDG17.054 complexed with hIL-2 (human, UniProt P60568 21-153); experiment: SPR, captured BDG17.054 loaded with 50 nM hIL-2, CD25 injected before CD122 and again after CD122
T2 construct: Humanized IgG1 captured on the SPR chip and saturated with 50 nM hIL-2; also called BDG17.054/hIL-2
Source text: (§1) FIGS. 17A-17B. Present receptor discrimination of indicated antibody/IL-2 complex by tracing of SPR response. Antibody was immobilized to the CM5 chip, and hIL-2, CD122, and CD25 were streamed as indicated with an arrow. FIG. 17A presents a schematic order of injection of compounds to SPR chip, that represents sequential anti-IL-2 antibodies complexed with human IL-2 (hIL2), binding to CD122 but not to CD25.
(§2) To test specific binding of the humanized antibodies IL-2 complex to CD122 and CD25, antibodies BDG17.038, BDG17.043, BDG17.053, BDG17.054, BDG17.067, BDG17.069 (See, Tables 6 and 7 of Example 2 for sequence information for these clones) were immobilized to an a capture antibody attached to CM5 chip channel to a target RU of approximately 300 RU as described above. Subsequently, 50 nM IL-2 was injected till the respective antibody was saturated with hIL-2. Then the Ab-IL-2 complex was washed with PBS-T buffer for 60 sec and 1000 nM of CD25 was injected and monitored for response. Subsequently, running buffer was injected for 60 seconds to reach a steady baseline, and then 1000 nM of CD122 was injected for 30 seconds in a flow rate of 30 ul/min. To test CD122 binding, the same experiment was repeated in reverse order, with CD122 injected first flowed by injection of CD25.

[4] = molecular target: T3, BDG17.069 complexed with hIL-2 (human, UniProt P60568 21-153); experiment: SPR, captured BDG17.069 loaded with hIL-2, CD25 injected before CD122 and again after CD122
T3 construct: Humanized IgG1 LALA captured on the SPR chip and saturated with 50 nM hIL-2
Source text: as §1

[5] = molecular target: T4, BDG17.038 complexed with hIL-2 (human, UniProt P60568 21-153); experiment: SPR, captured BDG17.038 loaded with 50 nM hIL-2, CD25 injected before CD122
T4 construct: Humanized IgG1 captured on the SPR chip and saturated with 50 nM hIL-2; also called BDG17.038/hIL-2
Source text: as §1

[6] = molecular target: T5, BDG17.066 complexed with hIL-2 (human, UniProt P60568 21-153); experiment: SPR, captured BDG17.066 loaded with hIL-2, CD25 injected before CD122 and again after CD122
T5 construct: Humanized IgG1 LALA on the SPR chip saturated with hIL-2
Source text: as §1

[7] = molecular target: T6, BDG17.043 complexed with hIL-2 (human, UniProt P60568 21-153); experiment: SPR, captured BDG17.043 loaded with 50 nM hIL-2, CD25 injected before CD122
T6 construct: Humanized IgG1 captured on the SPR chip and saturated with 50 nM hIL-2; also called BDG17.043/hIL-2
Source text: as §1

[8] = molecular target: T7, BDG17.023-hIL-2 complex (human, UniProt P60568 21-153); experiment: SPR, BDG17.023 on the CM5 chip loaded with 50 nM hIL-2, CD122 then CD25 1000 nM
T7 construct: BDG17.023 (human IgG1 chimera) on the SPR chip saturated with 50 nM hIL-2; also called BDG17.023-IL-2 complex; Ab-IL-2 complex
Experimental: To test specific binding to CD25, BDG17.023 was immobilized to the CM5 chip to a target RU of approximately 300 RU as described above. Subsequently, 50 nM IL-2 was injected till the BDG17.023 or control antibody were saturated. Then the Ab-IL-2 complex was washed with PBS-T buffer for 10 sec and 1000 nM of CD25 was injected and monitored for response.
To test specific binding to CD122, BDG17.023 was immobilized to the CM5 chip to a target RU of approximately 300 RU-500 RU as described above. Subsequently, 50 nM hIL-2 was injected till the BDG17.023 antibody was saturated with hIL-2. Next the Ab-IL-2 complex was washed with PBS-T buffer for 10 sec and 1000 nM of CD122 was injected and response was monitored.

[9] = molecular target: T8, BDG17.067 complexed with hIL-2 (human, UniProt P60568 21-153); experiment: SPR, captured BDG17.067 loaded with hIL-2, CD25 injected before CD122 and again after CD122
T8 construct: Humanized IgG1 LALA captured on the SPR chip and saturated with 50 nM hIL-2; also called BDG17.0067 complexed with hIL-2
Source text: as §1, §2

[10] = molecular target: T9, BDG17.053 complexed with hIL-2 (human, UniProt P60568 21-153); experiment: SPR, captured antibody saturated with 50 nM hIL-2, then CD25 and CD122 injected in both orders
T9 construct: Humanized IgG1 captured on the SPR chip and saturated with 50 nM hIL-2
Experimental: as §2

T1 sequence (P60568 21-153 limits assumed): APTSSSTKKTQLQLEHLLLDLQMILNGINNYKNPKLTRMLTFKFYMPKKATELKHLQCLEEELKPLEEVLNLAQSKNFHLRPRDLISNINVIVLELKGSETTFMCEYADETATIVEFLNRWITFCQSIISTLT
T8 sequence (heavy, as listed by the source limits assumed, chain 1 of 3): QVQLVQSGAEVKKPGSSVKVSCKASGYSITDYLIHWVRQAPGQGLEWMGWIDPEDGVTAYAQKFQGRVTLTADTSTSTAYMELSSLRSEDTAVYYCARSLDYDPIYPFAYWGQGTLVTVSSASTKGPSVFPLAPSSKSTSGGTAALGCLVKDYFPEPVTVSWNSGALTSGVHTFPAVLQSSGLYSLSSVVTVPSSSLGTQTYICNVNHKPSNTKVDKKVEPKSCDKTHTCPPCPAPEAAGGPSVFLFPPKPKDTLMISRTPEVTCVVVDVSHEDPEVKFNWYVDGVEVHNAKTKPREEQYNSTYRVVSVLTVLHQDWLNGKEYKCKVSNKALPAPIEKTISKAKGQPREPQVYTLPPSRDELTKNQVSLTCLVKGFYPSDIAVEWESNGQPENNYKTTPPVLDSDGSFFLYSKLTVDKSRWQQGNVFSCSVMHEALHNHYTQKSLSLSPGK
T8 sequence (light, as listed by the source limits assumed, chain 2 of 3): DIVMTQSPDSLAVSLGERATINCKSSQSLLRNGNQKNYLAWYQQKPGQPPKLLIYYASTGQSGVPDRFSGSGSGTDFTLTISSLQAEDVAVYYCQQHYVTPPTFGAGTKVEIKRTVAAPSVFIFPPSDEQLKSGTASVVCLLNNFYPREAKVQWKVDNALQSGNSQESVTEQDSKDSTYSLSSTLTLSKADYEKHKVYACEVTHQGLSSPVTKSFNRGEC
T8 sequence (P60568 21-153 limits assumed, chain 3 of 3): as the sequence (P60568 21-153 limits assumed) above
T4 sequence (VH, as listed by the source limits assumed, chain 1 of 3): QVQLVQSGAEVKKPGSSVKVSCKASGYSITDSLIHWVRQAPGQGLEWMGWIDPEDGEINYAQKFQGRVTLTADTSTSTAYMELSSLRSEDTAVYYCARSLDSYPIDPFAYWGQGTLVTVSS
T4 sequence (VL, as listed by the source limits assumed, chain 2 of 3): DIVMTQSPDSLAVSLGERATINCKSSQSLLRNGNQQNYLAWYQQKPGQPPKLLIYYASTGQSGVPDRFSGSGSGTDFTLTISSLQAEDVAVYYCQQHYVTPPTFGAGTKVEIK
T4 sequence (P60568 21-153 limits assumed, chain 3 of 3): as the sequence (P60568 21-153 limits assumed) above
T3 sequence (heavy, as listed by the source limits assumed, chain 1 of 3): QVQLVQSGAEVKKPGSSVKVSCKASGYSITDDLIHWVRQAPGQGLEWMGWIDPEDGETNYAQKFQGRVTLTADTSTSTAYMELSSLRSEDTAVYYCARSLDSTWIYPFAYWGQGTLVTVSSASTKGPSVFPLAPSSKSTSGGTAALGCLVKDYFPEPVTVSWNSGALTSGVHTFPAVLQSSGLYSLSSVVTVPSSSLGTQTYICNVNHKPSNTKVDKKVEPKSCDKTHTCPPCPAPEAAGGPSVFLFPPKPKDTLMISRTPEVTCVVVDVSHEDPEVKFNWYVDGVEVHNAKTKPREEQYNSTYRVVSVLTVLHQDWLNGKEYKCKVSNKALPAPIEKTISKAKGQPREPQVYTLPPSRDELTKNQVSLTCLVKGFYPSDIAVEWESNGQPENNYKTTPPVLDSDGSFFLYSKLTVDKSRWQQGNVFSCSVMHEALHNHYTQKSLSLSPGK
T3 sequence (light, as listed by the source limits assumed, chain 2 of 3): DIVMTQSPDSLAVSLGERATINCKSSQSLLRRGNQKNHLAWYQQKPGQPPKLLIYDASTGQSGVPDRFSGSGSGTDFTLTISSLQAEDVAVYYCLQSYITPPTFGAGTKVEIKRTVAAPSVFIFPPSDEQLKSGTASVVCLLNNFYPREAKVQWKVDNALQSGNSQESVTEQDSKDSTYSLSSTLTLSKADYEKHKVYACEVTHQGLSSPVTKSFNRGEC
T3 sequence (P60568 21-153 limits assumed, chain 3 of 3): as the sequence (P60568 21-153 limits assumed) above
T2 sequence (VH, as listed by the source limits assumed, chain 1 of 3): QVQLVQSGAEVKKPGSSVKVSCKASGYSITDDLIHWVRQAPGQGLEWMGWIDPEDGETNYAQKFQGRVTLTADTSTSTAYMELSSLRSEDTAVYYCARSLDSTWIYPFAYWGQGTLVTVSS
T2 sequence (VL, as listed by the source limits assumed, chain 2 of 3): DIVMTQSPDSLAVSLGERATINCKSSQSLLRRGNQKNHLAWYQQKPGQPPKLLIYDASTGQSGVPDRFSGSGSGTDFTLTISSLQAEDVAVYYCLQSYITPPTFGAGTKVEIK
T2 sequence (P60568 21-153 limits assumed, chain 3 of 3): as the sequence (P60568 21-153 limits assumed) above
T9 sequence (VH, as listed by the source limits assumed, chain 1 of 3): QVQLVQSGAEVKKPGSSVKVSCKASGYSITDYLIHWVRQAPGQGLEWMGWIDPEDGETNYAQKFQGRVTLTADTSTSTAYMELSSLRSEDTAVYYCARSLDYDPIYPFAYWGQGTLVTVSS
T9 sequence (VL, as listed by the source limits assumed, chain 2 of 3): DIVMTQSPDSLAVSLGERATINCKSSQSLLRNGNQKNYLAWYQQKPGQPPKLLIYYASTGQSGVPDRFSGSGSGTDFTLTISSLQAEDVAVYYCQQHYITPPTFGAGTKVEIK
T9 sequence (P60568 21-153 limits assumed, chain 3 of 3): as the sequence (P60568 21-153 limits assumed) above
T6 sequence (VH, as listed by the source limits assumed, chain 1 of 3): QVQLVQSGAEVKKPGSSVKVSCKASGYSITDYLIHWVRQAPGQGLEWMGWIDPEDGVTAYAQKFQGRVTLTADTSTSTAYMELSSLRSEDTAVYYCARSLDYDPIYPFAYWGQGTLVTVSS
T6 sequence (VL, as listed by the source limits assumed, chain 2 of 3): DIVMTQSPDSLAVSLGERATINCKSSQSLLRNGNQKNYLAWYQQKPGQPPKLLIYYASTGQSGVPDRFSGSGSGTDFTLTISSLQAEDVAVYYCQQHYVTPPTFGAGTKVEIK
T6 sequence (P60568 21-153 limits assumed, chain 3 of 3): as the sequence (P60568 21-153 limits assumed) above
T5 sequence (heavy, as listed by the source limits assumed, chain 1 of 3): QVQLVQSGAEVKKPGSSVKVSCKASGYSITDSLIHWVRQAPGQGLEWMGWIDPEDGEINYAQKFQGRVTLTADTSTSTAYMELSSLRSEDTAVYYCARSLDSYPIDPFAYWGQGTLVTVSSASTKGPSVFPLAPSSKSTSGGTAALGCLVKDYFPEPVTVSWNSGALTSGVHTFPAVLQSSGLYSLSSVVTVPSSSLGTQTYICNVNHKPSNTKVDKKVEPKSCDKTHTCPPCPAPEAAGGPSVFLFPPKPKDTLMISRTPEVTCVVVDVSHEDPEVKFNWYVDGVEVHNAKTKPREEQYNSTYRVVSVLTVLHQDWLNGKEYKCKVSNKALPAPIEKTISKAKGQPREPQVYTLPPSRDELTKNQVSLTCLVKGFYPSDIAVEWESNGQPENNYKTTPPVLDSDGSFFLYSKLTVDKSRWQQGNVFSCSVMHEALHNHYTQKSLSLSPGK
T5 sequence (light, as listed by the source limits assumed, chain 2 of 3): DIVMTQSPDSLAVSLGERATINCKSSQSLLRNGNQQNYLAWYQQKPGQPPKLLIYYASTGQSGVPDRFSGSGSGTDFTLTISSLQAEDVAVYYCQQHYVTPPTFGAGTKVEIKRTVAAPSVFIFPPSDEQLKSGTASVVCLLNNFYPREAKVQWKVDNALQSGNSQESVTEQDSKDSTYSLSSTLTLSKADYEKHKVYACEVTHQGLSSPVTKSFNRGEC
T5 sequence (P60568 21-153 limits assumed, chain 3 of 3): as the sequence (P60568 21-153 limits assumed) above
T7 sequence (P60568 21-153 limits assumed, one chain of several): as the sequence (P60568 21-153 limits assumed) above

B1: clone 2 (17.022) scFv, yeast surface display clone (scFv)
scFv: EIQLQQSGPELRRPGSSVKLSCKASGYNITDYLIHWVRHRPEHGLEWIGWIDPEDGETRYAQKFQSKATLTADTSSNAAYMQLSSLTPEDTATYFCARSLDSTWIYPFAYWGQGTLVTVSSGGGGSGGGGSGGGGSDIVMTQSPFSLAVSEGEMVTINCKSSQSLLRSGNQKNYLAWYQQKPGQSPKLLIYYASTGQSGVPDRFIGSGSGTDFTLTISDVQAEDLADYYCLQHYITPPTFGAGTKLELK
- binding result [1]: binds

B2: clone C #7 (173R5C1-17.002) (scFv)
scFv: B1 scFv with W104P
notes: Yeast surface display clone from the JES6.1 scFv library
- binding result [2]: binds

B3: clone 4 (17.023) scFv, yeast surface display clone (scFv)
scFv: B1 scFv with S99Q, W104Y
- binding result [1]: binds

B4: clone 1 (17.021) scFv, yeast surface display clone (scFv)
scFv: B1 scFv with Y32N, W104Y, I235Q, T236S
- binding result [1]: binds

B5: clone 5 (17.030) scFv, yeast surface display clone (scFv)
scFv: B1 scFv with W104Y, I105D, T236S
- binding result [1]: binds

The next lines start with the values.

- binding result [1]: binds
B6: clone 6 (17.035) scFv, yeast surface display clone (scFv)
scFv: B1 scFv with W104Y, I105N, Y234W, T236S

- binding result [3]: no binding (tested: 1000 nM)
- binding result [4]: no binding
- binding result [5]: no binding (tested: 1000 nM)
- binding result [6]: no binding
- binding result [7]: no binding
- binding result [8]: no binding (tested: 1000 nM)
- binding result [9]: no binding
- binding result [10]: no binding (tested: 1000 nM CD25)
B7: human CD25 (receptor, UniProt P01589 22-240, looked up)
chain: ELCDDDPPEIPHATFKAMAYKEGTMLNCECKRGFRRIKSGSLYMLCTGNSSHSSWDNQCQCTSSATRNTTKQVTPQPEEQKERKTTEMQSPMQPVDQASLPGHCREPPPWENEATERIYHFVVGQMVYYQCVQGYRALHRGPAESVCKMTHGKTRWTQPQLICTGEMETSQFPGEEKPQASPEGRPESETSCLVTTTDFQIQTEMAATMETSIFTTEYQ
notes: also called IL-2R alpha
